Here are results for one molecule from PMC3858243, “Escherichia coli Ribosomal Protein S1 Unfolds Structured mRNAs Onto the Ribosome for Active Translation Initiation”.

Holding throughout (assay): EMSA; Not given in the material for EMSA, SPR and filter binding (buffer with monovalent ions and MgCl2; RNA renatured 90°C 1 min, ice, then 25°C 30 min)
In one data set the target is S1Δ4-6 (Escherichia coli, UniProt P0AG67 1-279). Conditions: protein: recombinant; tags: C-terminal His6; label: 5' 32P; pseudoknot.
A further data set concerns the target S1Δ3-6 (Escherichia coli, UniProt P0AG67 1-170). Conditions: protein: recombinant; tags: C-terminal His6; label: 5' 32P; pseudoknot.
The target in data set [1] is ribosomal protein S1 wild type (Escherichia coli, UniProt P0AG67 1-557).

B1: mut-psk-rpsOSD (structured_RNA)
RNA: GGGAUCGCUGAAUUAGAGAUCGGCGUCCUUUCAUUCUAUAUAGUAAGGAGGUUAAAAUGUCUCUAAGU
Take B1: the binding signal with S1Δ4-6 worked out at 5 fold weaker than WT S1. Moreover, the binding result with S1Δ3-6 is given as “no binding”. The “apparent K (half saturation)” value in data set [1] is around 447 nM.
